According to EP4711384A1 (WIO Bioscience Co., Ltd., dated 2026):
Several values for one entry are separate records, joined by “and”; a condition that tells them apart may be missing. Equal entries are not always repeated.

T1: human IL-18R1 and IL-18RAP on IL-18 Reporter HEK 293 Cells (human, UniProt Q13478 19-541; O95256 20-599)
T1 sequence (looked up) 1: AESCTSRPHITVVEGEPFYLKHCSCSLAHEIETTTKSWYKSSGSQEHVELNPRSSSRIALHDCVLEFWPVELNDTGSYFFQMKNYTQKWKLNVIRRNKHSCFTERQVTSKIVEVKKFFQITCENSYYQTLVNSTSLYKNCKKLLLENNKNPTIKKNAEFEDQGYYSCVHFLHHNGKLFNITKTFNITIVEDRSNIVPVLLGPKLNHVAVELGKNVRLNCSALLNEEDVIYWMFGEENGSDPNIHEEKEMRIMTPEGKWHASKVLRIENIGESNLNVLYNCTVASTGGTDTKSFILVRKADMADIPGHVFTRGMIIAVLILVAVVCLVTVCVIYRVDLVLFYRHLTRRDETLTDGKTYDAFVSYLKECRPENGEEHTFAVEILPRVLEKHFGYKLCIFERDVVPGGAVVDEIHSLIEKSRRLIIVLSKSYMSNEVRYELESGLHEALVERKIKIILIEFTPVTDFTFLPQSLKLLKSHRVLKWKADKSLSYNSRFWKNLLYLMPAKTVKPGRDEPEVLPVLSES
T1 sequence (looked up) 2: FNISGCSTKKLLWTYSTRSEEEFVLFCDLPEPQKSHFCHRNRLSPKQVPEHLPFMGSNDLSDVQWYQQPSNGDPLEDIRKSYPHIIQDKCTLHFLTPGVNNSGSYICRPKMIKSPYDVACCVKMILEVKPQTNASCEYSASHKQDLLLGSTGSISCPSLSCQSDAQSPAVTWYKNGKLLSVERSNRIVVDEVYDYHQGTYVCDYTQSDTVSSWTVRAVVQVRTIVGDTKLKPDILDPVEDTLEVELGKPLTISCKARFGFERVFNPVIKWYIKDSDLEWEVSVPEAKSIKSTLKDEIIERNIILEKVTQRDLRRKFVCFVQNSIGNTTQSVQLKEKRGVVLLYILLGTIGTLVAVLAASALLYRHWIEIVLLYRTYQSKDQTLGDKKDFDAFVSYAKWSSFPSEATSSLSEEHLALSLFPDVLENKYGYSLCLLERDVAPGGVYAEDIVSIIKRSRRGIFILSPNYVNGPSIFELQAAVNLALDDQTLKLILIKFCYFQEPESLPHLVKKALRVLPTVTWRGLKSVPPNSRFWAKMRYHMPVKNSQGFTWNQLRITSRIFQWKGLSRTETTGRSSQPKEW

T2: human IL-18R1 ECD-His (human) (UniProt Q13478)
T2 sequence: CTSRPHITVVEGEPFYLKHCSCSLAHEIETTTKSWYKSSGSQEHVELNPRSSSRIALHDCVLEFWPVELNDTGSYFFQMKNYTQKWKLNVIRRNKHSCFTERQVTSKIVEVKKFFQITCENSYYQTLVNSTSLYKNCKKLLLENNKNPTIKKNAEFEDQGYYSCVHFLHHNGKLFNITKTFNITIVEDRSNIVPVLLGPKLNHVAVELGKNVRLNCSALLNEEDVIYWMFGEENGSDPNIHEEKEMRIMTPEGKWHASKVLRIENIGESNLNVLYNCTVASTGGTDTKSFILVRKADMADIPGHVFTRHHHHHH

B1: Wio-02-03 (R1-C7-GGGGS-Rap-F11) (bispecific antibody)
chain: QVQLQESGGGPVQAEGSLRLSCTASGNLYRDPCMGWFRQAPGKDREGVAAMNTGADSTFYARSVKGRFTISHDNAKNTLYLQMNSVKPEDTAMYYCAASRYCTERTWTWRYDYDYWGQGTQVTVSSGSQVQLQESGGGSVQPGGSLRLSCAASGFTYIPAYMGWFRQAPGKERERVASIKTDGSTTYADSVNGRFTIAQDTAKNTLYLQMDSLKPEDTAMYYCAAYQFGAFRVWGQGTQVTVSS
B2: Wio-02-29 (Rap-A10-GGGGS-R1-A12) (bispecific antibody)
chain: QVQLQESGGGLVQAGGSLKLSCAASGYTYGPYCMGWFRQFPGKEREGVAAVGGDGRTWYGNSVKGRFTISQDNAKKTLYLQINALKPEDTAMYYCAADFDRTVCSDDIYDYTYRGQGTQVTVSSGGGGSQVQLQESGGGPVQAGGSLRLSCSASTTAYDNACMGWFRQAPGKEREGVASIHLRDRTYYADSVKGRFTLSRDGASKTLYLQMNSLKPEDSGTYYCASSNICNGLNLQGNTYWGQGTQVTVSS
B3: Wio-02-23 (R1-F9-GGGGS-Rap-C10) (bispecific antibody)
chain: QVQLQESGGGSVQAGETLRLSCTASGFTVHDMGWYRQAPGNECELVSTISSDGSTYYADSVKGRFTISQDNAKNTVYLQMNSLKPEDTAVYYCAADHFTGLQLAECKADFGYWGQGTQVTVSSGGGGSQVQLQESGGGSVQPGGSLRLSCAASGFTYIPAYMGWFRQAPGKERERVASISSTDGSTTYADSVKGRFTVSQDTAKNTLYLQMNSLKPEDTAMYYCAAYQFGAFRVWGQGTQVTVSS
B4: Wio-02-05 (R1-C7-GGGGS-Rap-C10) (bispecific antibody)
chain: QVQLQESGGGPVQAEGSLRLSCTASGNLYRDPCMGWFRQAPGKDREGVAAMNTGADSTFYARSVKGRFTISHDNAKNTLYLQMNSVKPEDTAMYYCAASRYCTERTWTWRYDYDYWGQGTQVTVSSGGGGSQVQLQESGGGSVQPGGSLRLSCAASGFTYIPAYMGWFRQAPGKERERVASISSTDGSTTYADSVKGRFTVSQDTAKNTLYLQMNSLKPEDTAMYYCAAYQFGAFRVWGQGTQVTVSS
B5: Wio-02-31 (Rap-C10-GGGGS-R1-F9) (bispecific antibody)
chain: QVQLQESGGGSVQPGGSLRLSCAASGFTYIPAYMGWFRQAPGKERERVASISSTDGSTTYADSVKGRFTVSQDTAKNTLYLQMNSLKPEDTAMYYCAAYQFGAFRVWGQGTQVTVSSGGGGSQVQLQESGGGSVQAGETLRLSCTASGFTVHDMGWYRQAPGNECELVSTISSDGSTYYADSVKGRFTISQDNAKNTVYLQMNSLKPEDTAVYYCAADHFTGLQLAECKADFGYWGQGTQVTVSS
B6: Wio-02-30 (Rap-C10-GGGGS-R1-C10) (bispecific antibody)
chain: QVQLQESGGGSVQPGGSLRLSCAASGFTYIPAYMGWFRQAPGKERERVASISSTDGSTTYADSVKGRFTVSQDTAKNTLYLQMNSLKPEDTAMYYCAAYQFGAFRVWGQGTQVTVSSGGGGSQVQLQESGGGSVQAGETLRLSCTASGSTFDEYDMGWYRQAPGNKCELVSTISTIDGSTYYADSVKGRFTISQDNTKNTVYLQMNSLKPEDTGVYYCEADDRGTWDRGGCWGQGTQVTVSS
B7: Wio-02-44 (Rap-A10-GGGGS-R1-E12) (bispecific antibody)
chain: QVQLQESGGGLVQAGGSLKLSCAASGYTYGPYCMGWFRQFPGKEREGVAAVGGDGRTWYGNSVKGRFTISQDNAKKTLYLQINALKPEDTAMYYCAADFDRTVCSDDIYDYTYRGQGTQVTVSSGGGGSQVQLQESGGGSVQAGGSLRLSCVASGTTMSMNYMAWFRQAPGKEREGVASIFRSTHYADSVKGRFTIAEDSAKNTVYLQMNSLKPEDTAVYYCAAGRTKPYLTPLAESQYNYWGQGIQVTVSS
B8: hzWio-02-29 (His form) (bispecific antibody)
chain: EVQLLESGGGLVQPGGSLRLSCAASGYTYGPYCMGWFRQAPGKEREGVAAVGGDARTWYGNSVKGRFTISRDNSKNTLYLQMNSLRAEDTAVYYCAADFDRTVCSDDIYDYTYRGQGTLVTVSSGGGGSEVQLVESGGGLVQPGGSLRLSCAASGTAYDNACMGWFRQAPGKEREGVASIHLRDRTYYADSVKGRFTISRDNSKNTLYLQMNSLRAEDTAVYYCASSNICNALNLQGNTYWGQGTLVTVSSHHHHHH
B9: hzWio-02-11-His (bispecific antibody)
chain: EVQLVESGGGLVQPGGSLRLSCAASGSTFDEYDMGWYRQAPGGKCELVSTISTIDASTYYADSVKGRFTISRDNSKNTLYLQMNSLRAEDTAVYYCEADDRGTWDRGGCWGQGTLVTVSSGGGGSEVQLVESGGGLVQPGGSLRLSCAASGFTYIPAYMGWFRQAPGKERERVASISSTEGSTTYADSVKGRFTISQDNSKNTLYLQMNSLRPEDTAVYYCAAYQFGAFRVWGQGTLVTVSSHHHHHH
B10: hzWio-02-44 (His form) (bispecific antibody)
chain: EVQLLESGGGLVQPGGSLRLSCAASGYTYGPYCMGWFRQAPGKEREGVAAVGGDARTWYGNSVKGRFTISRDNSKNTLYLQMNSLRAEDTAVYYCAADFDRTVCSDDIYDYTYRGQGTLVTVSSGGGGSQVQLQESGGGSVQAGGSLRLSCVASGTTMSMNYMAWFRQAPGKEREGVASIFRSTHYADSVKGRFTIAEDSAKNTVYLQMNSLKPEDTAVYYCAAGRTKPYLTPLAESQYNYWGQGIQVTVSSHHHHHH
B11: hzWio-02-31 (His form) (bispecific antibody)
chain: EVQLVESGGGLVQPGGSLRLSCAASGFTYIPAYMGWFRQAPGKERERVASISSTEGSTTYADSVKGRFTISQDNSKNTLYLQMNSLRPEDTAVYYCAAYQFGAFRVWGQGTLVTVSSGGGGSEVQLVESGGGLVQPGGSLRLSCAASGFTVHDMGWYRQAPGKECELVSTISSDASTYYADSVKGRFTISRDNAKNTLYLQMNSLRAEDTAVYYCAADSFTGLQLAECKADFGYWGQGTLVTVSSHHHHHH
B12: hzWio-02-01-His (bispecific antibody)
chain: EVQLVESGGGLVQPGGSLRLSCAASGTAYDNACMGWFRQAPGKEREGVASIHLRDRTYYADSVKGRFTISRDNSKNTLYLQMNSLRAEDTAVYYCASSNICNALNLQGNTYWGQGTLVTVSSGGGGSEVQLLESGGGLVQPGGSLRLSCAASGYTYGPYCMGWFRQAPGKEREGVAAVGGDARTWYGNSVKGRFTISRDNSKNTLYLQMNSLRAEDTAVYYCAADFDRTVCSDDIYDYTYRGQGTLVTVSSHHHHHH
B13: hzWio-02-23-His (bispecific antibody)
chain: EVQLVESGGGLVQPGGSLRLSCAASGFTVHDMGWYRQAPGKECELVSTISSDASTYYADSVKGRFTISRDNAKNTLYLQMNSLRAEDTAVYYCAADSFTGLQLAECKADFGYWGQGTLVTVSSGGGGSEVQLVESGGGLVQPGGSLRLSCAASGFTYIPAYMGWFRQAPGKERERVASISSTEGSTTYADSVKGRFTISQDNSKNTLYLQMNSLRPEDTAVYYCAAYQFGAFRVWGQGTLVTVSSHHHHHH
B14: hzWio-02-30 (His form) (bispecific antibody)
chain: EVQLVESGGGLVQPGGSLRLSCAASGFTYIPAYMGWFRQAPGKERERVASISSTEGSTTYADSVKGRFTISQDNSKNTLYLQMNSLRPEDTAVYYCAAYQFGAFRVWGQGTLVTVSSGGGGSEVQLVESGGGLVQPGGSLRLSCAASGSTFDEYDMGWYRQAPGGKCELVSTISTIDASTYYADSVKGRFTISRDNSKNTLYLQMNSLRAEDTAVYYCEADDRGTWDRGGCWGQGTLVTVSSHHHHHH

Molecular target: T1, human IL-18R1 and IL-18RAP on IL-18 …
Assay: cell-based or functional assay

SEAP reporter OD, supernatant 5X | SEAP reporter OD, supernatant 25X | Binder
1.39 | 0.608 | B1
1.51 | 1.23 | B2
1.78 | 1.9 | B3
1.97 | 1.86 | B4
1.66 | 1.77 | B5
1.59 | 1.18 | B6
1.31 | 1.37 | B7

Molecular target: T1, human IL-18R1 and IL-18RAP on IL-18 …
Assay: cell-based or functional assay
Remark: another data set of the same source

EC50 | Top630nm | Binder
0.503 ng/mL | 1.61 | B8
0.101 ng/mL | 1.58 | B9
2.66 ng/mL | 0.912 | B10
2.58 ng/mL | 0.779 | B11
0.417 ng/mL | 1.93 | B12
0.13 ng/mL | 1.95 | B13
2.74 ng/mL | 0.837 | B14

Molecular target: T1, human IL-18R1 and IL-18RAP on IL-18 …
Assay: cell-based or functional assay
Remark: another data set of the same source

EC50 | Top530nm | Binder
2.3 ng/mL | 1.05 | B12

Molecular target: T2, human IL-18R1 ECD-His (human)
Assay: sandwich ELISA, IL-18RAP ECD-hFc detection

ELISA OD | Binder
1.74 and 1.85 | B1
2.05 and 2.04 | B2
1.73 and 1.83 | B3
1.88 and 1.9 | B4
2.17 and 2.18 | B5
2.16 and 2.29 | B6
1.87 and 1.94 | B7
